T1: FZD4 CRD (Homo sapiens, UniProt Q9ULV1)
T1 construct: E42-V167; GPI anchor signal (C); expressed in transfected cells; host or cells: CHO cells, lentiviral pLenti-puro
T1 sequence (Q9ULV1 42-167): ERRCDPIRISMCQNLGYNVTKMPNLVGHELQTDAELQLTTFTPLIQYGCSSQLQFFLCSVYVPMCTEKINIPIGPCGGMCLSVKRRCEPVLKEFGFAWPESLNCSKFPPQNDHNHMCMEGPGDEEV

T2: FZD10 CRD (Homo sapiens, UniProt Q9ULW2)
T2 construct: 30-156; GPI anchor signal (C); expressed in transfected cells; host or cells: CHO cells, lentiviral pLenti-puro
T2 sequence (Q9ULW2 30-156): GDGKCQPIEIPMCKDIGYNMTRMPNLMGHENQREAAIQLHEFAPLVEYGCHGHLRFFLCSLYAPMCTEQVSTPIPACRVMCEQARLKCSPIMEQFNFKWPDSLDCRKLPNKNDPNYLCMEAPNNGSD


Columns and labels:
FZD4 CRD [1] = target: T1, FZD4 CRD; test: Flow cytometry of anti-FZD5 Fab binding to CHO cells overexpressing Frizzled CRD
In short: (§1)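 CHO lines each expressing a different human Frizzled CRD, myc-tagged and GPI-anchored at the surface, stained with 200 nM Fab, then Alexa Fluor 488 F(ab′)2 secondary. Dead cells excluded by viability dye; anti-c-Myc staining served as expression control. Binding read by flow cytometry.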

FZD10 CRD = target: T2, FZD10 CRD; test: Immunofluorescence of anti-FZD5 Fab binding to CHO cells overexpressing Frizzled CRD; set-up: key: −: no binding; +: very weak binder; ++: weak binder; +++: good binder; ++++: very good binder
In short: (§2)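 Specificity of anti-FZD5 Fabs was tested on CHO cells displaying membrane-anchored Frizzled CRDs (myc-tagged, GPI-linked), one family member per line. Detection was by immunofluorescence.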

FZD2 CRD [2] = target: T3, FZD2 CRD (Homo sapiens, UniProt Q14332); test: as above; set-up: key: −: no binding; +: very weak binder; ++: weak binder; +++: good binder; ++++: very good binder
T3 construct: D35-P161; GPI anchor signal (C); expressed in transfected cells; host or cells: CHO cells, lentiviral pLenti-puro
In short: as §2

FZD4 CRD [3] = target: T1, FZD4 CRD; test: as above; set-up: key: −: no binding; +: very weak binder; ++: weak binder; +++: good binder; ++++: very good binder
In short: as §2

ASPC-1 cells [4] = test: Effect of anti-FZD5 Fabs on proliferation of pancreatic cancer cell lines (percent growth inhibition); type: cell-based, human; conditions: Fab 10 μg/ml
Procedure: (§3) The effect of presently disclosed anti-FZD5 Fabs on proliferation of RNF43 loss-of-function mutant pancreatic cancer cell lines HPAFII, PATU8988S and ASPC-1; and on pancreatic cancer cell line RWP1, was tested at […] and 10 μg/ml.

HPAFII cells = test: as above; type: cell-based, human; conditions: for percent growth inhibition, HPAFII 2 μg/ml: Fab 2 μg/ml; for percent growth inhibition, HPAFII 10 μg/ml: Fab 10 μg/ml
Procedure: as §3

PATU8988S cells [5] = test: as above; type: cell-based, human; conditions: Fab 10 μg/ml
Procedure: as §3

RWP1 cells [6] = test: as above; type: cell-based, human; conditions: Fab 10 μg/ml
Procedure: as §3

[7] = tested on: CHO cells not expressing Frizzled CRD; test: Flow cytometry of anti-FZD5 Fab binding to CHO cells not expressing Frizzled CRD (background)
Description: The binding of anti-FZD5 Fabs to cell surface-expressed Frizzled protein was further determined for each member of the Frizzled family via flow cytometry and immunofluorescence analysis of a panel of 10 CHO cell lines, each ectopically over-expressing the extracellular cysteine-rich domain (CRD) of a different Frizzled protein family member.

PATU8988S cells [8] = test: Effect of anti-FZD5 Fabs on proliferation of pancreatic cancer cell lines (percent growth inhibition); type: cell-based, human; conditions: Fab 2 μg/ml
ASPC-1 cells [9] = test: as above; type: cell-based, human; conditions: Fab 2 μg/ml
RWP1 cells [10] = test: as above; type: cell-based, human; conditions: Fab 2 μg/ml
FZD2 CRD [11] = target: T3, FZD2 CRD; test: Flow cytometry of anti-FZD5 Fab binding to CHO cells overexpressing Frizzled CRD
In short: as §1

Median fluorescence, Frizzled CRD overexpressed on CHO cells: FZD4 (FZD4 CRD [1]) | Immunofluorescence binding, Frizzled CRD overexpressed on CHO cells: FZD10 (FZD10 CRD) | Immunofluorescence binding, Frizzled CRD overexpressed on CHO cells: FZD2 (FZD2 CRD [2]) | Immunofluorescence binding, Frizzled CRD overexpressed on CHO cells: FZD4 (FZD4 CRD [3]) | Median fluorescence, Frizzled CRD overexpressed on CHO cells: FZD2 (FZD2 CRD [11]) | Molecule | percent growth inhibition, ASPC-1 10 μg/ml (ASPC-1 cells [4]) | percent growth inhibition, HPAFII 2 μg/ml (HPAFII cells) | percent growth inhibition, HPAFII 10 μg/ml (HPAFII cells) | percent growth inhibition, PATU8988s 10 μg/ml (PATU8988S cells [5]) | percent growth inhibition, RWP1 10 μg/ml (RWP1 cells [6]) | Median fluorescence, Frizzled CRD overexpressed on CHO cells: None [7] | percent growth inhibition, PATU8988s 2 μg/ml (PATU8988S cells [8]) | percent growth inhibition, ASPC-1 2 μg/ml (ASPC-1 cells [9]) | percent growth inhibition, RWP1 2 μg/ml (RWP1 cells [10])
12.75 | − | − | − |  | Fab-2922: anti-FZD5 Fab with antibody variable region Fv-2922; CDR SEQ ID NOs: 35, 36, 61, 99, 137, 171 (antibody, V domains shown) VH: EVQLVESGGGLVQPGGSLRLSCAASGFNIYSSYMHWVRQAPGKGLEWVASISPYSGYTSYADSVKGRFTISADTSKNTAYLQMNSLRAEDTAVYYCARTVRGSKKPYFSGWAMDYWGQGTLVTVSS VL: DIQMTQSPSSLSASVGDRVTITCRASQSVSSAVAWYQQKPGKAPKLLIYSASSLYSGVPSRFSGSRSGTDFTLTISSLQPEDFATYYCQQSFVYPYLITFGQGTKVEIK | 27.72% | 8.28% | 8.14% | −24.14% | 7.59% | 3.89 | 9.16% | 14.47% | −6.96%
7.3 | − | − | − |  | Fab-2935: anti-FZD5 Fab with antibody variable region Fv-2935; CDR SEQ ID NOs: 35, 36, 74, 111, 150, 178 (antibody, V domains shown) VH: EVQLVESGGGLVQPGGSLRLSCAASGFNIYYYYIHWVRQAPGKGLEWVASIYPSSGSTSYADSVKGRFTISADTSKNTAYLQMNSLRAEDTAVYYCARAAFDYWGQGTLVTVSS VL: DIQMTQSPSSLSASVGDRVTITCRASQSVSSAVAWYQQKPGKAPKLLIYSASSLYSGVPSRFSGSRSGTDFTLTISSLQPEDFATYYCQQWYGGYALITFGQGTKVEIK | 24.63% | −9.18% | −10.62% | −22.12% | 10.15% | 3.46 | 2.48% | 4.75% | −14.51%
9.31 | − | − | − | 11.44 | Fab-2930: anti-FZD5 Fab with antibody variable region Fv-2930; CDR SEQ ID NOs: 35, 36, 69, 107, 145, 153 (antibody, V domains shown) VH: EVQLVESGGGLVQPGGSLRLSCAASGFNLSYYYIHWVRQAPGKGLEWVASIYPYSGSTSYADSVKGRFTISADTSKNTAYLQMNSLRAEDTAVYYCARGALDYWGQGTLVTVSS VL: DIQMTQSPSSLSASVGDRVTITCRASQSVSSAVAWYQQKPGKAPKLLIYSASSLYSGVPSRFSGSRSGTDFTLTISSLQPEDFATYYCQQWYGPYLITFGQGTKVEIK | 37.33% | −10.77% | 7.81% | −13.64% | 10.72% | 4.66 | −0.39% | 21.31% | 17.91%

Source: patent publication US20210253718A1, “FRIZZLED5 PROTEIN-BINDING AGENTS” (Modmab Therapeutics Corporation, priority 2016, published 2021)
